The results in this text go back to paper PMC1175818, “A Conserved Mechanism for Sulfonucleotide Reduction” (PLoS Biology, 2005).

Data set [1] has as its target E. coli PAPS reductase (E. coli). The experiment in a line: SEC; Superdex 200 gel filtration; 50 mM Tris-HCl (pH 8.0), 10% glycerol, 5 mM DTT, ionic strength adjusted to 150 mM with NaCl; column calibrated with protein standards; no change in retention volume when DTT was omitted. On the technique in general: In gel filtration, larger molecules generally elute earlier.

Data set [2] concerns the molecule itself. Described as above.

On to E. coli PAPS reductase (enzyme), for which, in data set [1], the stoichiometry N worked out at 2.

B1: P. aeruginosa APS reductase (enzyme, UniProt O05927 1-267, looked up)
chain: MLPFATIPATERNSAAQHQDPSPMSQPFDLPALASSLADKSPQDILKAAFEHFGDELWISFSGAEDVVLVDMAWKLNRNVKVFSLDTGRLHPETYRFIDQVREHYGIAIDVLSPDPRLLEPLVKEKGLFSFYRDGHGECCGIRKIEPLKRKLAGVRAWATGQRRDQSPGTRSQVAVLEIDGAFSTPEKPLYKFNPLSSMTSEEVWGYIRMLELPYNSLHERGYISIGCEPCTRPVLPNQHEREGRWWWEEATHKECGLHAGNLISKA
notes: APS reductase of P. aeruginosa, gene amplified from P. aeruginosa genomic DNA ATCC 47085D; Cloned into pET24b or pET14b; source: E. coli BL21(DE3), purified (HiTrap Chelating, Superdex 200 gel filtration)
Take B1: the “stoichiometry N” value in data set [2] turned out to be 4.

A word on the stoichiometry N: it is a count of units in the complex or per binding partner.
